Data taken from patent US20180305450A1 (AstraZeneca / MedImmune, published 2018).

Experiments:
[1] = biological target: T1, recombinant biotinylated human PAR2 extracellular domain (residues 1-75), N-terminal AviTag, C-terminal Flag … (human, UniProt P55085 26-75, biotin on the AviTag (enzymatic biotinylation)); experiment: Biacore SPR 25 C, pH 6.0
T1 construct: also called Bio-human-PAR2 ECD; human PAR2 ECD; not shown: N-terminal AviTag (Avidity LLC); C-terminal Flag and poly Histidine tags
Procedure: (§1) The experiments were carried out using recombinant human, rat and cynomolgus PAR2 with an N-terminal Avi tag and C-terminal Flag-His tags.
(§2) Streptavidin was covalently immobilised to a C1 chip surface using standard amine coupling techniques at a concentration of 4 μg/ml in 10 mM Sodium acetate pH 4.5. A final streptavidin surface of approximately 30-100 RUs was achieved. Recombinant biotinylated PAR2 species (produced in-house) were titrated onto the streptavidin chip surface at 4 μg/ml in HBS-EP+ buffer to enable Fab binding at saturation (Rₘₐₓ). This low level of analyte binding ensured minimal mass transport effects.
(§3) The anti-PAR2 Fabs were serially diluted (0.39 nM-25 nM) in HBS-EP+ buffer pH 7.4 or MES-BS-EP+ pH 6.0 buffer or in MES-BS-EP+ pH 5.6 buffer and flowed over the chip at 50 μl/min, with 3 minutes association and up to 30 minutes dissociation. Multiple buffer-only injections were made under the same conditions to allow for double reference subtraction of the final sensorgram sets, which were analysed using the BiaEval software (version 2.0.1). The chip surface was fully regenerated with pulses of 4 M MgCl₂.

[2] = biological target: T2, recombinant biotinylated rat PAR2 extracellular residues 1-75, N-terminal AviTag, C-terminal Flag and poly … (rat, UniProt Q63645 26-75, not fully specified; biotin on the AviTag (enzymatic biotinylation)); experiment: Biacore SPR 25 C, pH 6.0
T2 construct: range 1-75; not shown: N-terminal AviTag (Avidity LLC); C-terminal Flag and poly Histidine tags
T2 chain (looked up): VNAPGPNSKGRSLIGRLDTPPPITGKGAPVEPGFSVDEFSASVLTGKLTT
Procedure: as §1, §2, §3

[3] = biological target: T1, recombinant biotinylated human PAR2 …; experiment: Biacore SPR 25 C, pH 7.4
Procedure: as §1, §2, §3

[4] = biological target: T2, recombinant biotinylated rat PAR2 …; experiment: Biacore SPR 25 C, pH 7.4
Procedure: as §1, §2, §3

[5] = biological target: T1, recombinant biotinylated human PAR2 …; experiment: Biacore SPR 25 C, pH 5.6
Procedure: as §1, §2, §3

[6] = biological target: T3, recombinant biotinylated cynomolgus (Macaca fascicularis) PAR2 extracellular residues 1-75, N-terminal … (cynomolgus (Macaca fascicularis)); experiment: Biacore SPR 25 C, pH 5.6
T3 construct: range 1-75; also called cynomolgus PAR2
Procedure: as §1, §2, §3

[7] = biological target: T1, recombinant biotinylated human PAR2 …; experiment: Biacore SPR 25 C, pH 6.0; remark: listed apart in the source
Procedure: as §1, §2, §3

[8] = biological target: T3, recombinant biotinylated cynomolgus …; experiment: Biacore SPR 25 C, pH 6.0
Procedure: as §1, §2, §3

[9] = biological target: T1, recombinant biotinylated human PAR2 …; experiment: Biacore SPR 25 C, pH 7.4; remark: listed apart in the source
Procedure: as §1, §2, §3

[10] = biological target: T3, recombinant biotinylated cynomolgus …; experiment: Biacore SPR 25 C, pH 7.4
Procedure: as §1, §2, §3

[11] = biological target: T1, recombinant biotinylated human PAR2 …; experiment: Biacore SPR 25 C, pH 6.0 (second row)
Procedure: as §1, §2, §3

[12] = biological target: T3, recombinant biotinylated cynomolgus …; experiment: Biacore SPR 25 C, pH 6.0 (second row)
Procedure: as §1, §2, §3

[13] = biological target: T1, recombinant biotinylated human PAR2 …; experiment: Biacore SPR 25 C, pH 7.4 (second row)
Procedure: as §1, §2, §3

[14] = biological target: T3, recombinant biotinylated cynomolgus …; experiment: Biacore SPR 25 C, pH 7.4 (second row)
Procedure: as §1, §2, §3

[15] = biological target: T1, recombinant biotinylated human PAR2 …; experiment: Biacore SPR 25 C, pH 7.4; pH 7.4; human; second determination
Procedure: as §1, §2, §3

T1 sequence (P55085 26-75): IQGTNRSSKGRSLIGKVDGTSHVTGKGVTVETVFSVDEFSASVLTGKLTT

B1: PaB670129 Fab (Fab, V domains shown)
VH: EVQLLESGGGLVQPGGSLRLSCAASGFTFSSYAMNWVRQAPGKGLEWVSTISYHGSHISYHDSVHHRFTISRDNSKNTLYLQMNSLRAEDTAVYYCARIHHDPMDVWGQGTLVTVSS
VL: SIELTQPPSVSVSPGQTASITCSGDNLGKKYVQWYQQKPGQSPVLVIYDDSNRPSGIPERFSGSNSGNTATLTISGTQAMDEADYYCQTWDGNPTTGETNVFGGGTKLTVL
notes: Fab; also called ZZ1RUE-F02
- Kd [1]: 34.8 nM
- koff [1]: 0.0554 s⁻¹
- kon [1]: 1.59e+06 M⁻¹ s⁻¹
- Kd [2]: 57.9 nM
- koff [2]: 0.0841 s⁻¹
- kon [2]: 1.45e+06 M⁻¹ s⁻¹
- Kd [3]: 0.614 nM
- koff [3]: 0.00504 s⁻¹
- kon [3]: 8.2e+06 M⁻¹ s⁻¹
- Kd [4]: 2.98 nM
- koff [4]: 0.0263 s⁻¹
- kon [4]: 8.82e+06 M⁻¹ s⁻¹
- Kd [5]: 84.5 nM
- koff [5]: 0.112 s⁻¹
- kon [5]: 1.33e+06 M⁻¹ s⁻¹
- Kd [6]: 37.8 nM
- koff [6]: 0.139 s⁻¹
- kon [6]: 3.66e+06 M⁻¹ s⁻¹
- Kd [7]: 36.9 nM
- koff [7]: 0.0576 s⁻¹
- kon [7]: 1.56e+06 M⁻¹ s⁻¹
- Kd [8]: 12.8 nM
- koff [8]: 0.0275 s⁻¹
- kon [8]: 2.14e+06 M⁻¹ s⁻¹
- Kd [9]: 0.748 nM
- koff [9]: 0.00534 s⁻¹
- kon [9]: 7.14e+06 M⁻¹ s⁻¹
- Kd [10]: 0.333 nM
- koff [10]: 0.00223 s⁻¹
- kon [10]: 6.67e+06 M⁻¹ s⁻¹
- Kd [11]: 33.5 nM
- koff [11]: 0.109 s⁻¹
- kon [11]: 3.26e+06 M⁻¹ s⁻¹
- Kd [12]: 13.6 nM
- koff [12]: 0.0236 s⁻¹
- kon [12]: 1.74e+06 M⁻¹ s⁻¹
- Kd [13]: 0.778 nM
- koff [13]: 0.0053 s⁻¹
- Kd [14]: 0.335 nM
- koff [14]: 0.00221 s⁻¹
- kon [14]: 6.59e+06 M⁻¹ s⁻¹
- kon [15]: 6.81e+06 M⁻¹ s⁻¹
